Laboratory results published in article PMC8916728.

How the values were obtained:
[1] = biological target: NRP2 a2b1b2 (human neuropilin 2 residues 145 to 595, monomeric IgG1 Fc tag) (human) (UniProt O60462); test: BLI
[2] = biological target: monoFc-tagged NRP2 (human neuropilin 2 a1a2b1b2, residues 23 to 595) (human) (UniProt O60462); test: BLI
Sequence of monoFc-tagged NRP2 (human neuropilin 2 a1a2b1b2, residues 23 to 595) (human) (O60462 23-595): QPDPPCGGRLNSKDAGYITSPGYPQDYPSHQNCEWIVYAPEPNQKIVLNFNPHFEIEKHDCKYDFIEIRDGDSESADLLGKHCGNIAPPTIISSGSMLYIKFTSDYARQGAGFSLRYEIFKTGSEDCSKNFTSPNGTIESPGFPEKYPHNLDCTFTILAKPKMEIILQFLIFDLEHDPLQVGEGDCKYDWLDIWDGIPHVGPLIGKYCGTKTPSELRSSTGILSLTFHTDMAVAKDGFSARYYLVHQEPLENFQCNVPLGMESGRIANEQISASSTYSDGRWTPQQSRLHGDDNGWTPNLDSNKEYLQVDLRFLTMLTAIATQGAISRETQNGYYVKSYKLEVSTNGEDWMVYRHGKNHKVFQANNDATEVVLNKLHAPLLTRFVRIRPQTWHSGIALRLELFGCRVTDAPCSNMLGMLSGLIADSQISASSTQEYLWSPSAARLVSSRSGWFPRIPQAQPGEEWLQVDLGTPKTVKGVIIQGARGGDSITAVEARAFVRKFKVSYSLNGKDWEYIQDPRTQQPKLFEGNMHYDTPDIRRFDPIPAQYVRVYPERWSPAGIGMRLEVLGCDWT

Sequence of NRP2 a2b1b2 (human neuropilin 2 residues 145 to 595, monomeric IgG1 Fc tag) (human) (O60462 145-595): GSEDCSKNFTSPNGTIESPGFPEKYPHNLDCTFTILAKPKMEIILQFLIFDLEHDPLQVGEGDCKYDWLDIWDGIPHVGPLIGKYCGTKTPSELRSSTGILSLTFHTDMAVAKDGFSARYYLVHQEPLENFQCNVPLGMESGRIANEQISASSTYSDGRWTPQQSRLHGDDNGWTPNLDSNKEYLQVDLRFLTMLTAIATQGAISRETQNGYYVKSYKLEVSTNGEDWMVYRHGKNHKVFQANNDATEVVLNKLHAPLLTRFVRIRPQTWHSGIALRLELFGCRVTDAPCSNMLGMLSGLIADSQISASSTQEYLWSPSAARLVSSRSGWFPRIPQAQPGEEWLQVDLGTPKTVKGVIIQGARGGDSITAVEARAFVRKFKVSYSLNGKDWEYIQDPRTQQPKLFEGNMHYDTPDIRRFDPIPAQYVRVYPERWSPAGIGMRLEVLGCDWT

Q: With “soluble ectodomain of the HCMV Pentamer (strain Towne) (from UniProt P17176 24-718) (complex)” as the substance, how does the Kd [1] read?
A: 7.9 nM

Q: And the Kd [2]?
A: 2.2 nM
